The text below walks through data of US20260125457A1 (Janssen / Centocor, published 2026).

B1: CALRB75 (MP1004 Fab x CD3W245-LH-scFv, medium affinity) (bispecific antibody, part only; not given: CD3 scFv arm and IgG1 constant regions, V domains shown, not shown: another chain or arm of the molecule; a dimerising Fc or GST; small tags and cut ends)
VL: DPMLTQTPSSVSAAVGGTVTINCQSSQSVYNNNWLSWLQQKPGQPPNRLIYDASKLESGVPSRFSGSGSGTQFTLTISGVQSDDAATYYCAGGFTGNVYTFGGGTEVVVK
VH: QEQLEESGGRLVTPGTPLTLTCKVSGIDLSNNAISWVRQAPGKGLEYIGVIGNTGDTYYASWAKGRFTISKTSSTTVDLKMTSLTTEDTATYFCVRGPPSYSNSVKNIWGPGTLVTISS
B2: CALRB77 (MP1010 Fab x CD3W245-LH-scFv, medium affinity) (bispecific antibody, part only; not given: anti-CD3 scFv arm, constant regions, V domains shown, not shown: another chain or arm of the molecule; a dimerising Fc or GST; small tags and cut ends)
VL: B1 VL with N22G, N31D, N32K, L38Y, N47S, A85V, T100A
VH: QSVEESGGRLVTPGTPLTLTCTVSGIDLSNNAISWVRQAPGKGLEYIGVIGNTGDTYYASWAKGRFTISKTSSTTVDLKMTSLTTEDTATYFCVRGPPSYSNSVKNIWGPGTLVTISS
B3: CALRB116 (MP1007 Fab x CD3W245-HL-scFv, high affinity) (bispecific antibody, part only; not given: anti-CD3 scFv arm, constant regions, V domains shown, not shown: another chain or arm of the molecule; a dimerising Fc or GST; small tags and cut ends)
VH: B2 VH with S2Q, V3L, T12A, T18R, I33V, D55T, S60N, E86D, K105R, I116V
VL: B1 VL with N22G, N31D, L38Y, E57A, Q81K, F94Y, T100S, E106M, V108E, V109I
B4: CALRB115 (MP1004 Fab x CD3W245-HL-scFv, high affinity) (bispecific antibody, part only; not given: anti-CD3 scFv arm, constant regions, V domains shown, not shown: another chain or arm of the molecule; a dimerising Fc or GST; small tags and cut ends)
VH: B1 VH
VL: B1 VL
B5: CALRB76 (MP1007 Fab x CD3W245-LH-scFv, medium affinity) (bispecific antibody, part only; not given: CD3 scFv arm and IgG1 constant regions, V domains shown, not shown: another chain or arm of the molecule; a dimerising Fc or GST; small tags and cut ends)
VL: B1 VL with N22G, N31D, L38Y, E57A, Q81K, F94Y, T100S, E106M, V108E, V109I
VH: B2 VH with S2Q, V3L, T12A, T18R, I33V, D55T, S60N, E86D, K105R, I116V
B6: CALRB117 (MP1010 Fab x CD3W245-HL-scFv, high affinity) (bispecific antibody, part only; not given: anti-CD3 scFv arm, constant regions, V domains shown, not shown: another chain or arm of the molecule; a dimerising Fc or GST; small tags and cut ends)
VH: B2 VH
VL: B1 VL with N22G, N31D, N32K, L38Y, N47S, A85V, T100A
B7: CALRB114 (MP1001 Fab x CD3W245-HL-scFv, high affinity) (bispecific antibody, part only; not given: CD3 scFv arm and IgG1 constant regions, V domains shown, not shown: another chain or arm of the molecule; a dimerising Fc or GST; small tags and cut ends)
VH: QEQLKESGGRLVTPGTPLTLTCAVSGFSLDIYGMSWVRQAPGKGLEWIGIIYIEGITYYANWAKGRFTISKTSSTTLELKMTSLTTEDTAMYFCVAGVGRIWGPGTLVTVSS
VL: YVMMTQTPSSVSAAVGGTVTINCQASQSLYNNNNLAWFQQKPGQPPKRLIYPASTLASGVSSRFKGSGSGTQFTLTISDVQSDDAATYFCLGEFSCSSADCYAFGGGTEVVVK
B8: CALRB74 (MP1001 Fab x CD3W245-LH-scFv, medium affinity) (bispecific antibody, part only; not given: CD3 scFv arm and IgG1 constant regions, V domains shown, not shown: another chain or arm of the molecule; a dimerising Fc or GST; small tags and cut ends)
VL: B7 VL
VH: B7 VH
B9: CALRB118 (MP1016C Fab x CD3W245-HL-scFv, high affinity) (bispecific antibody, part only; not given: CD3 scFv arm and IgG1 constant regions, V domains shown, not shown: another chain or arm of the molecule; a dimerising Fc or GST; small tags and cut ends)
VL: DPVLTQTESPVSAAVGGTVTINCQASQSVYDDNNLAWYQQKPGQPPKRLIYPASTLASGVSSRFSGSGSGSQFTLTISDVQSDDAATYYCQGEFSCTSADCVAFGGGTEVVVK
VH: QEQLKESGGRLVTPGTPLTLTCTASGFSLSNYYMSWVRQAPGKGLEWIGGISSRAGTWYASWAKGRFTISGTSSTTMDLKITSPTTEDTATYFCARGLKIWGPGTLVTVSS
B10: CALRB119 (MP1016 Fab x CD3W245-HL-scFv, high affinity) (bispecific antibody, part only; not given: anti-CD3 scFv arm, constant regions, V domains shown, not shown: another chain or arm of the molecule; a dimerising Fc or GST; small tags and cut ends)
VL: B9 VL
VH: QEQLKESGGRLVTPGTPLTLTCTASGFSLSNYYMSWVRQAPGKGLEWIGGISSRAGTWYASWAKGRFTISGTSTTMDLKITSPTTEDTATYFCARGLKIWGPGTLVTVSS
B11: CALRB78 (MP1016C Fab x CD3W245-LH-scFv, medium affinity) (bispecific antibody, part only; not given: anti-CD3 scFv arm, constant regions, V domains shown, not shown: another chain or arm of the molecule; a dimerising Fc or GST; small tags and cut ends)
VL: B9 VL
VH: B9 VH
B12: CALRB79 (MP1016 Fab x CD3W245-LH-scFv, medium affinity) (bispecific antibody, part only; not given: anti-CD3 scFv arm, constant regions, V domains shown, not shown: another chain or arm of the molecule; a dimerising Fc or GST; small tags and cut ends)
VL: B9 VL
VH: B10 VH
B13: CALRB120 (MP1018C Fab x CD3W245-HL-scFv, high affinity) (bispecific antibody, part only; not given: CD3 scFv arm and IgG1 constant regions, V domains shown, not shown: another chain or arm of the molecule; a dimerising Fc or GST; small tags and cut ends)
VL: DVVMTQTPSSVSAAVGGTVTINCQASQSLYNNKNLAWYQQKPGQPPKLLIYYASALASGVSSRFKGSGSGTQFTLTISGVQSDDAATYYCQGEFNCNSADCNSFGGGTEVVVK
VH: QSVEESGGRLVTPGTPLTITCTVSGFSLSSYAMSWVRQAPGKGLEWIGVIDSGGTTYYATWAKSRFTISKTSSTKVALKITSPTTEDTATYFCARESYAGYDGYGHPIPYGMDPWGPGTLVTVSS
B14: CALRB81 (MP1018 Fab x CD3W245-LH-scFv, medium affinity) (bispecific antibody, part only; not given: anti-CD3 scFv arm, constant regions, V domains shown, not shown: another chain or arm of the molecule; a dimerising Fc or GST; small tags and cut ends)
VL: B13 VL
VH: QSVEESGGRLVTPGTPLTITCTVSGFSLSSYAMSWVRQAPGKGLEWIGVIDSGGTTYYATWAKSRFTISKTTKVALKITSPTTEDTATYFCARESYAGYDGYGHPIPYGMDPWGPGTLVTVSS
B15: CALRB80 (MP1018C Fab x CD3W245-LH-scFv, medium affinity) (bispecific antibody, part only; not given: CD3 scFv arm and IgG1 constant regions, V domains shown, not shown: another chain or arm of the molecule; a dimerising Fc or GST; small tags and cut ends)
VL: B13 VL
VH: B13 VH
B16: Clone 5 (Fab, V domains shown)
VH: B1 VH with E5K, T13A, T19R, K23T, I34V, D56T, S73T, E87D, I117V
VL: B1 VL with M3V, N22G, N31D, N32K, L38Y, N47S, S82C, T100G
notes: Rabbit/human chimeric Fab on phage; also Fab-AP
B17: Clone 11 (Fab, V domains shown)
VH: B1 VH with E5K, T13A, T19R, K23T, I34V, D56T, S61N, E87D, I117V
VL: B1 VL with S10P, S25A, S36T, L38Y, E57A, S69F, S82C, G92A, F94W, T100S
notes: Rabbit/human chimeric Fab (human CH1, CK) on phage; also soluble Fab-AP
B18: Clone 21 (Fab, V domains shown)
VH: B1 VH with E5K, T13A, T19R, K23T, I34V, D56T, S61N, E87D
VL: DVVMTQTPSSVSAAVGGTVTIGCQSSQSVYDKNWLSWYQQKPGQPPSRLIYDASKLESGVPSRFSGSGSGTQFTLTISGVQCDDAATYYCAGGFTGNVYAFGGGTMVEIK
notes: as for B17
B19: Clone 3 (Fab, V domains shown)
VH: B1 VH with E5K, T13A, T19R, K23R, I34V, D56S, S61N, T86A, E87D, I117V
VL: B18 VL with V2P, V3M, M4L, M106E, E108V, I109V
notes: as for B17
B20: Clone 7 (Fab, V domains shown)
VH: B2 VH with S2Q, V3L, T12A, T18R, I33V, D55T, S60N, E86D, K105R, I116V
VL: B18 VL with V2P, V3M, M4L, K32N, S47N, E57A, Q81K, F94Y, A100S
notes: as for B17

Changes are numbered by the printed parent chain.

Chain of CALRins5 (mutant calreticulin, 5 base pair insertion, Type 2) expressed with MPL on engineered cancer cells (P27797 other isoform, or with tags, fused parts or gaps mutant limits assumed): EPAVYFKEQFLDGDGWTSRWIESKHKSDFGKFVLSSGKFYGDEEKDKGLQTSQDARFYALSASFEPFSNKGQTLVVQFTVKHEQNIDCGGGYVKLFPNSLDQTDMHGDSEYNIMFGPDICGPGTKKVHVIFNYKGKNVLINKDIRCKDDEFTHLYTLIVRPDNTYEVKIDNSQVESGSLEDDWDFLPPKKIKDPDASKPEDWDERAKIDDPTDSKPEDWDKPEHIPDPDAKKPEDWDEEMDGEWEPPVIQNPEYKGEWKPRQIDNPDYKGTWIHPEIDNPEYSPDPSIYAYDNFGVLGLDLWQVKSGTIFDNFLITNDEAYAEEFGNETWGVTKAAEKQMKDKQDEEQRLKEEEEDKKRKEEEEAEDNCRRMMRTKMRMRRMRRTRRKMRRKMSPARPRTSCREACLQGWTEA

The target in the first test is CALRdel52 (mutant calreticulin, 52 base pair deletion, Type 1) expressed with MPL on engineered cancer cells (UniProt P27797). Put plainly: cell-based or functional assay.
Chain of CALRdel52 (mutant calreticulin, 52 base pair deletion, Type 1) expressed with MPL on engineered cancer cells (P27797 other isoform, or with tags, fused parts or gaps mutant limits assumed): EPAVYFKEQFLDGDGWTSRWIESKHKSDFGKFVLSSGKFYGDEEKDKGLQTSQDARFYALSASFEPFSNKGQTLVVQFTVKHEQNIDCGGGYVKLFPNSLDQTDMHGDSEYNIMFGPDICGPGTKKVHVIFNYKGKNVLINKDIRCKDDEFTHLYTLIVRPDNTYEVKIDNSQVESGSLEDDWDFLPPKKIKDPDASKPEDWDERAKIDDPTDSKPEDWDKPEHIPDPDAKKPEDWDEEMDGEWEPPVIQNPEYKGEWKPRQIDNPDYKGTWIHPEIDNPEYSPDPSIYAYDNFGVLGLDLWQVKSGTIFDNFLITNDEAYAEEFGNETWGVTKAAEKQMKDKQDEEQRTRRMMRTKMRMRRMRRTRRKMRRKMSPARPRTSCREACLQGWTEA
Molecule B1 registered a Cytotoxicity EC50, K562 MPL CALRdel52 cells of 0.193 µg/mL and a Cytotoxicity EC50, OCI-M2 MPL CALRdel52 cells of 0.115 µg/mL.
The like results for B2 were, in that order, 0.195 µg/mL and 0.183 µg/mL.
For B3 the same measures were 0.0243 µg/mL and 0.0802 µg/mL.
Turning to B4, the Cytotoxicity EC50, K562 MPL CALRdel52 cells was determined as 0.0348 µg/mL and the Cytotoxicity EC50, OCI-M2 MPL CALRdel52 cells is 0.0508 µg/mL.
Molecule B5 registered a Cytotoxicity EC50, K562 MPL CALRdel52 cells of 0.0633 µg/mL and a Cytotoxicity EC50, OCI-M2 MPL CALRdel52 cells of 0.0897 µg/mL.
For B6 the same measures were 0.0403 µg/mL and 0.0598 µg/mL.
For the molecule B7, the Cytotoxicity EC50, K562 MPL CALRdel52 cells turned out to be 0.0112 µg/mL and the Cytotoxicity EC50, OCI-M2 MPL CALRdel52 cells is 0.0168 µg/mL.
For B8 the same measures were 0.0521 µg/mL and 0.0253 µg/mL.
For B9 the same measures were 0.0099 µg/mL and 0.505 µg/mL.
The like results for B10 were, in that order, 0.0064 µg/mL and 0.504 µg/mL.
The molecule B11 registered a Cytotoxicity EC50, K562 MPL CALRdel52 cells of 0.0393 µg/mL and a Cytotoxicity EC50, OCI-M2 MPL CALRdel52 cells of 0.0581 µg/mL.
For B12 the same measures were 0.0444 µg/mL and 0.112 µg/mL.
As to B13, the Cytotoxicity EC50, K562 MPL CALRdel52 cells is 0.0077 µg/mL and the Cytotoxicity EC50, OCI-M2 MPL CALRdel52 cells turned out to be 0.0091 µg/mL.
The like results for B14 were, in that order, 0.0457 µg/mL and 0.0196 µg/mL.
For B15 the same measures were 0.0401 µg/mL and 0.0205 µg/mL.

Another test has as its target CALRins5 (mutant calreticulin, 5 base pair insertion, Type 2) expressed with MPL on engineered cancer cells (UniProt P27797). Put plainly: cell-based or functional assay.
In turn, B1 registered a Cytotoxicity EC50, K562 MPL CALRins5 cells of 0.116 µg/mL and a Cytotoxicity EC50, OCI-M2 MPL CALRins5 cells of 0.129 µg/mL.
On to B2, for which the Cytotoxicity EC50, K562 MPL CALRins5 cells was 0.414 µg/mL and the Cytotoxicity EC50, OCI-M2 MPL CALRins5 cells was determined as 0.189 µg/mL.
The like results for B3 were, in that order, 0.0953 µg/mL and 0.0392 µg/mL.
For B4 the same measures were 0.0541 µg/mL and 0.0431 µg/mL.
Regarding B5, the Cytotoxicity EC50, K562 MPL CALRins5 cells came to 0.107 µg/mL and the Cytotoxicity EC50, OCI-M2 MPL CALRins5 cells turned out to be 0.189 µg/mL.
For B6 the same measures were 0.0741 µg/mL and 0.0481 µg/mL.
For B7, the Cytotoxicity EC50, K562 MPL CALRins5 cells came out at 0.0163 µg/mL and the Cytotoxicity EC50, OCI-M2 MPL CALRins5 cells is 0.0235 µg/mL.
Molecule B8 registered a Cytotoxicity EC50, K562 MPL CALRins5 cells of 0.0304 µg/mL and a Cytotoxicity EC50, OCI-M2 MPL CALRins5 cells of 0.0322 µg/mL.
The molecule B9 yielded a Cytotoxicity EC50, K562 MPL CALRins5 cells of 0.0157 µg/mL and a Cytotoxicity EC50, OCI-M2 MPL CALRins5 cells of 0.0136 µg/mL.
For B10 the same measures were 0.0104 µg/mL and 0.0225 µg/mL.
Regarding B11, the Cytotoxicity EC50, K562 MPL CALRins5 cells stood at 0.0648 µg/mL and the Cytotoxicity EC50, OCI-M2 MPL CALRins5 cells turned out to be 0.0792 µg/mL.
The molecule B12 gave a Cytotoxicity EC50, K562 MPL CALRins5 cells of 0.0416 µg/mL and a Cytotoxicity EC50, OCI-M2 MPL CALRins5 cells of 0.0911 µg/mL.
For B13 the same measures were 0.0119 µg/mL and 0.0145 µg/mL.
For B14 the same measures were 0.0509 µg/mL and 0.0171 µg/mL.
For B15 the same measures were 0.0434 µg/mL and 0.0212 µg/mL.

Another test has as its target T1, 22 amino acid CALRmut-specific peptide (acetylation of the terminal amino-group; C-terminal -OH group).
T1 construct: also called 22aa CALRmut peptide; CALRmut target peptide
T1 peptide: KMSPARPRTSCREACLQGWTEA
Put plainly: phage ELISA; QC ELISA of soluble Fab-AP.
Turning to B16, the binding result is “binds”.
Still for that read-out and setting: next, B17: “binds”; B18: “binds”.
On the same count and under the same terms, for B19 the value was “binds”; for B20, “binds”.
